# Patent US9051358B2, “Nonnatural collagen-like protein and use thereof” (ZHEJIANG UNIVERSITY, priority 2009, dated 2015)
# B1: rGLK420/G-CSF: fusion protein of GLK420 and G-CSF (SEQ ID NO: 10) (protein)
# chain: GPPGEDGDKGEIGEPGQKGSKGDKGEQGPPGPTGPQGPIGQPGPSGADGEPGPRGQQGLFGQKGDEGPRGFPGPPGPVGLQGLPGPPGEKGETGDVGQMGPPGPPGPRGPSGAPGADGPQGPPGGIGNPGAVGEKGEPGEAGEPGLPGEGGPPGPKGERGEKGESGPSGAAGPPGPKGPPGDDGPKGSPGPVGFPGDPGPPGEPGPAGQDGPPGDKGDDGEPGQTGSPGPTGEPGPSGPPGKRGPPGPAGPEGRQGEKGAKGEAGLEGPPGKTGPIGPQGAPGKPGPDGLRGIPGPVGEQGLPGSPGPDGPPGPMGPPGLPGLKGDSGPKGEKGHPGLIGLIGPPGEQGEKGDRGLPGPQGSSGPKGEQGITGPSGPIGPPGPPGLPGPPGPKGAKGSSGPTGPKGEAGHPGPPGPPGPPTPLGPASSLPQSFLLKCLEQVRKIQGDGAALQEKLCATYKLCHPEELVLLGHSLGIPWAPLSSCPSQALQLAGCLSQLHSGLFLYQGLLQALEGISPELGPTLDTLQLDVADFATTIWQQMEELGMAPALQPTQGAMPAFASAFQRRAGGVLVASHLQSFLEVSYRVLRHLAQP
# modifications: GLK420/G-CSF, fusion protein
# B2: rGLK1164/G-CSF: fusion protein of GLK1164 and hG-CSF (SEQ ID NO: 6) (protein)
# chain: GPPGEQGKPGNQGEPGNPGSPGQPGNPGQPGSPGNPGQPGNEGPQGSQGNPGQPGEPGSNGQPGQPGQNGKNGQPGSPGSQGSPGNQGSPGNQGQPGNKGEQGKPGNQGPAGEQGKPGNQGEPGNPGSPGQPGNPGQPGSPGNPGQPGNEGPQGSQGNPGQPGEPGSNGQPGQPGQNGKNGQPGSPGSQGSPGNQGSPGNQGQPGNKGEQGKPGNQGPAGEQGKPGNQGEPGNPGSPGQPGNPGQPGSPGNPGQPGNEGPQGSQGNPGQPGEPGSNGQPGQPGQNGKNGQPGSPGSQGSPGNQGSPGNQGQPGNKGEQGKPGNQGPAGEQGKPGNQGEPGNPGSPGQPGNPGQPGSPGNPGQPGNEGPQGSQGNPGQPGEPGSNGQPGQPGQNGKNGQPGSPGSQGSPGNQGSPGNQGQPGNKGEQGKPGNQGPAGGSGGTPLGPASSLPQSFLLKCLEQVRKIQGDGAALQEKLCATYKLCHPEELVLLGHSLGIPWAPLSSCPSQALQLAGCLSQLHSGLFLYQGLLQALEGISPELGPTLDTLQLDVADFATTIWQQMEELGMAPALQPTQGAMPAFASAFQRRAGGVLVASHLQSFLEVSYRVLRHLAQP
# modifications: rGLK116 tetramer/G-CSF
# B3: rhG-CSF: rhG-CSF (Filgrastim, Amgen, USA) (protein, UniProt P09919 31-207, looked up)
# Granulocyte …: TPLGPASSLPQSFLLKCLEQVRKIQGDGAALQEKLVSECATYKLCHPEELVLLGHSLGIPWAPLSSCPSQALQLAGCLSQLHSGLFLYQGLLQALEGISPELGPTLDTLQLDVADFATTIWQQMEELGMAPALQPTQGAMPAFASAFQRRAGGVLVASHLQSFLEVSYRVLRHLAQP
# modifications: filgrastim, N-terminal Met
# Key:
# [1] = system: G-CSF-dependent cell line NFS60; assay: In vitro bioactivity in G-CSF-dependent cell line NFS60 by MTT assay; format: cell-based; conditions: for Bioactivity (IU/mg): Table 4; for Relative activity (in molar basis)(%): relative to G-CSF
# Procedure: In vitro bioactivity of the rGLK1164/G-CSF fusion protein was measured in G-CSF-dependent cell line NFS60 by MTT assay (Chinese Pharmacopoeia, 2005 edition, three sections).
# [2] = Pharmacokinetics of G-CSF proteins in SD rats (ELISA); format: in vivo; conditions: for Half-life: SD rats; for detectability in blood after subcutaneous injection: blood concentration-time curve
# Excerpt: (§1) The pharmacokinetic parameters and pharmacodynamic properties of rhG-CSF (Filgrastim, Amgen, USA), rHSA/G-CSF (prepared according to U.S. Pat. No. 5,876,969), rGLK1164/G-CSF and rGLK1164 in SD rats were compared.
# (§2) Adult SPF SD rats (approximately 300-350 g) from the Center of Experimental Animals of Chinese Academy of Sciences in Shanghai were divided into 8 groups and administered according to Table 3. Blood samples were collected from the caudal veins of rats. The number of white blood cells were counted, and serum was saved at −20° C. after separated by centrifugation (3000rpm for 5 minutes).
# The plasma concentration detection of rhG-CSF, rGLK1164/G-CSF and rHSA/G-CSF was carried out using ELISA (for the specific operations, refer to the operating manual of Human G-CSF DuoSet kit Human G-CSF ELISA Construction Kit (ANTIGENIX)). The MicroCal Origin software was used to draw standard curve according to four-parameter logistic fitting method, and calculate related statistical parameters by regression analysis. The 3P87 software was used to calculate the PK parameters.
# GLK/G-CSFs with different structures were prepared in a similar way, and their activity, half-life in SD rats and other relevant parameters were compared.
# [3] = In vitro stability, shock at 40° C., SEC-HPLC analysis; format: physicochemical; conditions: for Purity (%) (SEC-HPLC analysis): 1 mg/ml in 20 mM PB pH6.0, 40° C.; for protein content after incubation (%): 40° C.; for in vitro stability (aggregates, total protein content): shock 48 hours at 40° C.
# Procedure: Reference rhG-CSF and rGLK1164/G-CSF were dissolved in 20 mM PB, pH6.0 to the protein concentration of 1 mg/ml. samples were sterile filtered and distributed to penicillin bottles. […]
# white blood cells = assay: Pharmacodynamic study, number of white blood cells in SD rats; format: in vivo
# Excerpt: as §1, §2
# [4] = Immunogenicity study in mice, serum antibody detection by ELISA; format: in vivo, Balc/C mice; conditions: sc once a week, 2.5 nmol
# Procedure: Balc/C mice (n=12) with a average weight of about 25 g were evenly divided into 4 groups. 2.5 nmol rGLK1164, 2.5 nmol rGLK1164/G-CSF, and the same volume of saline were administered to a corresponding group respectively by subcutaneous injection once a week. Serum samples were collected in week 4 and week 9(a week after the eighth immunization) and were saved separately at −70° C.
# rGLK1164 or G-CSF was diluted with 0.2M carbonate buffer (pH9.6) to 1 μg/ml. Each well of the ELISA microplate was filled with 100 μl dilution and coated overnight at 4° C., and then the wells were washed with PBST for 3 times(5 minutes each time). The washed wells were sealed by 5% nonfat dry milk for 1 hour, and then washed three times with PBST (5 minutes each time). The preserved serum of each group was added to the well at a rate of 1:50,1:200,1:800, and then the microplate was incubated at 37° C. for 1 hour, and for one increased hour after the secondary antibody, HRP-conjugated goat anti-mouse antibody was added. After the microplate was shook to dry and washed by PBST, it was colored with TMB-HCL and detected under the illumination of 450 nm. Meanwhile, 200 ng/ml of rabbit anti-human G-CSF antibody was used as a positive control.
Molecule,Bioactivity (IU/mg) [1],Relative activity (in molar basis)(%) [1],Half-life [2],in vitro activity [1],Purity (%) (SEC-HPLC analysis) ([3]; 0 h),protein content after incubation (%) ([3]; 0 h),Purity (%) (SEC-HPLC analysis) ([3]; 24 h),protein content after incubation (%) ([3]; 24 h),Purity (%) (SEC-HPLC analysis) ([3]; 48 h),protein content after incubation (%) ([3]; 48 h),"in vitro stability (aggregates, total protein content) [3]",terminal half-life ([2]; administered subcutaneously in rats),detectability in blood after subcutaneous injection [2],number of white blood cells (white blood cells; 48 hours after an injection),extent and duration of white blood cell increase versus rHSA/G-CSF (white blood cells; same dosage),serum anti-G-CSF antibody ([4]; plate coated by G-CSF),serum anti-rGLK1164 antibody ([4]; plate coated by rGLK1164)
B1,0.28 × 10^8 IU/mg,129%,>7 h,,,,,,,,,,,,,,
B2,0.33 × 10^8 IU/mg,146%,>7 h,about 3.3×10^7 IU/mg,99.5%,100%,98.7%,97.8%,97.5%,96.7%,changed little,10 h,could still be detected at 72 hours,increased significantly,no significant difference,anti-G-CSF antibody is produced,no anti-rGLK1164 antibody produced
B3,0.7 × 10^8 IU/mg,100%,1.7 h,,99.8%,100%,94.3%,91.2%,85.2%,68.9%,a large number of polymeric aggregates were formed and the total protein content was also decreased significantly,,couldn't be detected 24 hours later,,,,
